Article PMC8373069

How the values were obtained:
[1] = biological target: T1, MUTYH (His tag cleaved) (mouse) (UniProt Q99P21); assay: EMSA; conditions: 20 nM MUTYH, 8 nM DNA, no UV-DDB; strand 1 position 21 = 8-oxoG (written G); strand 2 position 17 = tetrahydrofuran abasic analogue (written N), opposite the 8-oxoG; EMSA: 20 mM HEPES pH 7.5, 150 mM NaCl, 5 mM DTT, 0.5 mg/ml BSA, 5% glycerol, RT; 5% native gel in 1/2x TBE at 4 C
T1 sequence: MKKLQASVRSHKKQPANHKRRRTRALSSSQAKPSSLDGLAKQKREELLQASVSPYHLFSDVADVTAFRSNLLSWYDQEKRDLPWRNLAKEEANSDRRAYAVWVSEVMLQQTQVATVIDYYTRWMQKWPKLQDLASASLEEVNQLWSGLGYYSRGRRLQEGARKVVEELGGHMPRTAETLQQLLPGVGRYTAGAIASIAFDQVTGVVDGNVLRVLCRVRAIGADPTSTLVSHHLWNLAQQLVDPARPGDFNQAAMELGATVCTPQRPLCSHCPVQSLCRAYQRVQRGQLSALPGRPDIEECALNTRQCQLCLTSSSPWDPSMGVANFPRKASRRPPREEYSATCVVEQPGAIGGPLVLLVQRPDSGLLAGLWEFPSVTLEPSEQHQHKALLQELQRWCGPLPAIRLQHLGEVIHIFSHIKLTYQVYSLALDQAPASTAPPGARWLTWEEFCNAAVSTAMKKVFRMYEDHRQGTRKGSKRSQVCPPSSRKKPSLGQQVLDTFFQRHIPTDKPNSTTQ

His6-MUTYH (mouse) = assay: single-molecule DNA tightrope; conditions: one tetrahydrofuran abasic site every 2 kb, EMSA: 20 mM HEPES pH 7.5, 150 mM NaCl, 5 mM DTT, 0.5 mg/ml BSA, 5% glycerol, RT, 5% native gel in 1/2x TBE at 4 C
[2] = biological target: mouse MUTYH, hexa-histidine tag cleaved with thrombin (mouse) (UniProt Q99P21)

With “CCGAGTCATTCCTGCAGCGAGTCCATGGGAGTCAAAT / ATTTGACTCCCATGGANTCGCTGCAGGAATGACTCGG [THF8-oxoG37]” the binding signal [1] was > 80 % DNA bound.
Substance THF array (tightrope DNA) has a binding signal (s (half-life on abasic sites)) (His6-MUTYH (mouse); with UV-DDB, which promotes MUTYH dissociation) of 590 and a binding signal (s (half-life on abasic sites)) (His6-MUTYH (mouse); without UV-DDB) of 8800.
“UV-DDB (DDB1–DDB2 heterodimer) (from UniProt Q16531 1-1140; Q92466 1-427) (complex)” showed an MUTYH (20 nM) excision of A opposite 8-oxoG in 50 nM 37 bp duplex, with 50 nM UV-DDB against without, up to 4 h at 37°C [2] of 4 to 5 fold.
